For assay [1], the target named is microtubules assembled from porcine brain PC-tubulin (not taxol-stabilised) (porcine) (UniProt P02550). Kind of assay: cell-based or functional assay.
Assay [2] addresses taxol-stabilised microtubules (porcine brain tubulin) (porcine) (UniProt P02550). The experiment in a line: binding to taxol stabilized microtubules (30 µM tubulin dimers) after p110MARK phosphorylation.
The target is the same in assay [3]. The experiment in a line: binding to taxol stabilized microtubules (30 µM tubulin dimers), binding curve.

Chain of MAP4, phosphorylated with NPK-110 (P27546 630-1125): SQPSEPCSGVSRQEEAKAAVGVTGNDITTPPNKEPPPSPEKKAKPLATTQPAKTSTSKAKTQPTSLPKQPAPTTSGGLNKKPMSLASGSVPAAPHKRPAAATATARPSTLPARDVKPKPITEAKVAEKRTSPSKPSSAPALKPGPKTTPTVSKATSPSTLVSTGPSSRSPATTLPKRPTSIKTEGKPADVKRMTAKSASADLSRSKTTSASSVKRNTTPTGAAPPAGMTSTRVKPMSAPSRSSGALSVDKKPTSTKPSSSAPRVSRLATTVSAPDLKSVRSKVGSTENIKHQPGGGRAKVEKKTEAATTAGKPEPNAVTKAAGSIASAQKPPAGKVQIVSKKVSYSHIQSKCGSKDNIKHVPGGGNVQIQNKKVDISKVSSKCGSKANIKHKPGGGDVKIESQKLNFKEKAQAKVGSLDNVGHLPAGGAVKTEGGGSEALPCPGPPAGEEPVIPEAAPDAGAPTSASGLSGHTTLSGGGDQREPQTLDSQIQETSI

As to MAP2, phosphorylated with NPK-110, the mean length of microtubules, against the control without ATP (fold of control) in assay [1] amounted to 0.5.

For the substance MAP2cA319, phosphorylated with p110MARK, in assay [2], the Kd worked out at 7 µM.

In assay [2], MAP2cA350, phosphorylated with p110MARK showed a Kd of 7 µM.

For MAP4, phosphorylated with NPK-110, the mean length of microtubules, against the control without ATP (fold of control) in assay [1] turned out to be 0.5.

In assay [3], “recombinant wild type MAP2c, non-phosphorylated” came in with a dissociation constant Kd of 0.25 µM, a saturation of 17 µM and a stoichiometry (MAP2c molecules per tubulin dimer) of 0.5.

For “recombinant wild type MAP2c, phosphorylated with p110MARK (NPK-110)”, the mean length of microtubules, against the control without ATP (fold of control) in assay [1] was determined as 0.5.

The values above are taken from patent publication US7485712.
